# Assay results taken from article doi:10.1101/2024.02.15.580443.
# Where two headings read alike, the source gives them in different places.
# Key:
# [1] = target: ComM from Legionella pneumophila (C-terminal His6-tag) (Legionella pneumophila Paris) (UniProt Q5ZXZ0); assay: cryo-EM structure
# [2] = target: ComM from Legionella pneumophila (C-terminal His6-tag) (Legionella pneumophila Paris) (UniProt Q5ZXZ0); assay: cryo-EM structure; remark: listed apart in the source
# [3] = target: RadA R301A mutant from Streptococcus pneumoniae (for biochemical assays) (Streptococcus pneumoniae (R800 derivative strain)) (UniProt Q8DRP0)
# [4] = target: RadA from Streptococcus pneumoniae (strep-tagged, for cryoEM) (Streptococcus pneumoniae) (UniProt Q8DRP0); assay: cryo-EM structure
substance,measurement,setting,value
ComM from Legionella pneumophila (C-terminal His6-tag) (from UniProt Q5ZXZ0 1-503) (enzyme),stoichiometry N,[1],12
same,stoichiometry N,[2],6
RadA R301A mutant from Streptococcus pneumoniae (for biochemical assays) (from UniProt Q8DRP0 2-419) (enzyme),stoichiometry N,[3],6
"RadA from Streptococcus pneumoniae (strep-tagged, for cryoEM) (from UniProt Q8DRP0 1-420) (enzyme)",stoichiometry N,[4],6
